In article PMC7769458, “In vitro and in vivo characterization of Recifercept, a soluble fibroblast growth factor receptor 3, as treatment for achondroplasia” (PLoS ONE, 2020):

How the values were obtained:
Details in all cases: both partners purified
human FGF20 = molecular target: T1, human FGF20 (human, UniProt Q9NP95 1-211); assay: SPR; Biacore T200; Recifercept amine-coupled on a CM5 chip (about 400 RU); hFGF injected in HBS-EP (0.01 M HEPES, 0.15 M NaCl, 3 mM EDTA, 0.05% polysorbate 20, pH 7.4) at 50 ul/min; single cycle kinetics, 5 concentrations from 0 to 16 nM; global 1:1 fit; triplicate
T1 construct: fibroblast growth factor 20, human, recombinant; also called hFGF20; source: recombinant

human FGF2 = molecular target: T2, human FGF2 (human, UniProt P09038 143-288); assay: as above
T2 construct: fibroblast growth factor 2, human, recombinant; also called hFGF2; source: recombinant; bought: Peprotech for the cell assays

human FGF16 = molecular target: T3, human FGF16 (human, UniProt O43320 1-207); assay: as above
T3 construct: fibroblast growth factor 16, human, recombinant; also called hFGF16; source: recombinant

human FGF1 = molecular target: T4, human FGF1 (human, UniProt P05230 16-155); assay: as above
T4 construct: fibroblast growth factor 1, human, recombinant; also called hFGF1; source: recombinant; bought: Peprotech for the cell assays

human FGF9 = human FGF9 (human, UniProt P31371 4-208); assay: as above
human FGF18 = molecular target: T5, human FGF18 (human, UniProt O76093 28-207); assay: SPR; as a1 (Recifercept amine-coupled on a CM5 chip, hFGF in HBS-EP, single cycle kinetics, 0 to 16 nM, 1:1 fit, triplicate) but with 16 nM heparin in each tested concentration (FGF8 subfamily)
T5 construct: fibroblast growth factor 18, human, recombinant; also called hFGF18; source: recombinant
T5 sequence (looked up): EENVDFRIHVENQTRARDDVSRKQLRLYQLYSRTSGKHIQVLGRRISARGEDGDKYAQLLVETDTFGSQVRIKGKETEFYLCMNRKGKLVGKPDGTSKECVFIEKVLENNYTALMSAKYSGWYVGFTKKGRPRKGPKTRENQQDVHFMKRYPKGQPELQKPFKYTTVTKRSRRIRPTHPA

human FGF8 = human FGF8 (human, UniProt P55075 23-233, Isoform, supplier and limits are not printed. Assumed the FGF8b isoform (mature 23-215), the usual commercial recombinant form and the one that binds FGFR3c; the P55075 canonical sequence is FGF8e. Th); assay: as above
human FGF17 = molecular target: T6, human FGF17 (human, UniProt O60258 23-216); assay: as above
T6 construct: fibroblast growth factor 17, human, recombinant; also called hFGF17; source: recombinant
T6 sequence (looked up): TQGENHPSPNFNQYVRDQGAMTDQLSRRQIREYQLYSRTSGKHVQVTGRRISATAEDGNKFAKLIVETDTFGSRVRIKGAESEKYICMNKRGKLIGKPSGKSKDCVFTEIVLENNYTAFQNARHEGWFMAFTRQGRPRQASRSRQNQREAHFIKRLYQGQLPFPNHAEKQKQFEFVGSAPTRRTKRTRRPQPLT

T1 sequence (Q9NP95 whole entry): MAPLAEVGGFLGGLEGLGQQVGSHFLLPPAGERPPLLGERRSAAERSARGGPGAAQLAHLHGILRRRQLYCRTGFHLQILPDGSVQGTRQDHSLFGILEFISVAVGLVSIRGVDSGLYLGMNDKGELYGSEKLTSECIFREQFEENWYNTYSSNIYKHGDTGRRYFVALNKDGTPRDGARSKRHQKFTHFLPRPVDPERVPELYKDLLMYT
T4 sequence (P05230 16-155): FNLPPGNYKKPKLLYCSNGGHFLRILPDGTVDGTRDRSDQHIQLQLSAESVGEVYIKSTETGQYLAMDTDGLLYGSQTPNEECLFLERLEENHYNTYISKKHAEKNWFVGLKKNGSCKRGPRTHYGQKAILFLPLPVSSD
T2 sequence (P09038 143-288): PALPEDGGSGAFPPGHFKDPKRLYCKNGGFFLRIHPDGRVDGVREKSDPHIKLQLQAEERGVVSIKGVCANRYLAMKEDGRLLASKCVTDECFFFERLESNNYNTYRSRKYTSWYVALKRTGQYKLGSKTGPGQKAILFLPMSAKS

- Kd (human FGF20): 7.1 nM
- koff (human FGF20): 0.000548 s⁻¹
- kon (human FGF20): 123000 M⁻¹ s⁻¹
- Kd (human FGF2): 3.4 nM
- koff (human FGF2): 0.000898 s⁻¹
- kon (human FGF2): 279000 M⁻¹ s⁻¹
- Kd (human FGF16): 0.94 nM
- koff (human FGF16): 0.00253 s⁻¹
- kon (human FGF16): 2.8e+06 M⁻¹ s⁻¹
- Kd (human FGF1): 0.74 nM
- koff (human FGF1): 0.000904 s⁻¹
- kon (human FGF1): 1.33e+06 M⁻¹ s⁻¹
- Kd (human FGF9): 0.75 nM
- koff (human FGF9): 0.00133 s⁻¹
- kon (human FGF9): 1.83e+06 M⁻¹ s⁻¹
- Kd (human FGF18): 4.17 nM
- koff (human FGF18): 0.00105 s⁻¹
- kon (human FGF18): 270000 M⁻¹ s⁻¹
- Kd (human FGF8): 4.28 nM
- koff (human FGF8): 0.000705 s⁻¹
- kon (human FGF8): 171000 M⁻¹ s⁻¹
- Kd (human FGF17): 2.73 nM
- koff (human FGF17): 0.000964 s⁻¹
- kon (human FGF17): 390000 M⁻¹ s⁻¹
B1: Recifercept (receptor)
chain: ESLGTEQRVVGRAAEVPGPEPGQQEQLVFGSGDAVELSCPPPGGGPMGPTVWVKDGTGLVPSERVLVGPQRLQVLNASHEDSGAYSCRQRLTQRVLCHFSVRVTDAPSSGDDEDGEDEAEDTGVDTGAPYWTRPERMDKKLLAVPAANTVRFRCPAAGNPTPSISWLKNGREFRGEHRIGGIKLRHQQWSLVMESVVPSDRGNYTCVVENKFGSIRQTYTLDVLERSPHRPILQAGLPANQTAVLGSDVEFHCKVYSDAQPHIQWLKHVEVNGSKVGPDGTPYVTVLKTAGANTTDKELEVLSLHNVTFEDAGEYTCLAGNSIGFSHHSAWLVVLPVSLESNASMSSNT
notes: extracellular domain of human FGFR3 (P22607); also called soluble fibroblast growth factor receptor 3; modified soluble recombinant human FGFR3; source: GPEX CHO cell line, 50L single use bioreactor, media filtered, purified using chromatography
